Measured values: patent publication US20110065652A1
Bridge positions count the residues as written; N and C are the ends. Square brackets hold non-standard residues; d marks the D form. Orn = NCCC[C@H](N)C(=O)O; Dab = NCC[C@H](N)C(=O)O

How the values were obtained:
[1] = target: human recombinant melanocortin-4 receptor (hMC4-R) (human) (UniProt P32245); assay: cell-based or functional assay
[2] = target: human recombinant melanocortin-5 receptor (hMC5-R) (human) (UniProt P33032); assay: competitive binding against Eu-NDP-α-MSH, HEK-293 hMC5-R membranes
[3] = target: human recombinant melanocortin-4 receptor (hMC4-R) (human) (UniProt P32245); assay: competitive binding against [I125]-NDP-α-MSH, HEK-293 hMC4-R membranes
[4] = target: melanocortin-1 receptor (MC1-R), endogenous in B-16 mouse melanoma cells (mouse) (UniProt Q01727); assay: competitive binding against [I125]-NDP-α-MSH, B-16 mouse melanoma membranes
[5] = target: human recombinant melanocortin-3 receptor (hMC3-R) (human) (UniProt P41968); assay: competitive binding against labelled NDP-α-MSH (I125 or Eu), HEK-293 hMC3-R membranes
Chain of human recombinant melanocortin-3 receptor (hMC3-R) (human) (P41968 whole entry): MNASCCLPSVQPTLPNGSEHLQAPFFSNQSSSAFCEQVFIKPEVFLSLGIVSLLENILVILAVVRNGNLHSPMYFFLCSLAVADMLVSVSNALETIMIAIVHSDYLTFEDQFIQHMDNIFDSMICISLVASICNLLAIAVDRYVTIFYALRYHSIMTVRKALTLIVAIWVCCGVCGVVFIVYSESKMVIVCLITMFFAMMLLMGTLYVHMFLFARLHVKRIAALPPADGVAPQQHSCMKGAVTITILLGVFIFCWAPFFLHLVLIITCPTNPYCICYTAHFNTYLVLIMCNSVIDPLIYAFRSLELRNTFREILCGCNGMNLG

Chain of human recombinant melanocortin-4 receptor (hMC4-R) (human) (P32245 whole entry): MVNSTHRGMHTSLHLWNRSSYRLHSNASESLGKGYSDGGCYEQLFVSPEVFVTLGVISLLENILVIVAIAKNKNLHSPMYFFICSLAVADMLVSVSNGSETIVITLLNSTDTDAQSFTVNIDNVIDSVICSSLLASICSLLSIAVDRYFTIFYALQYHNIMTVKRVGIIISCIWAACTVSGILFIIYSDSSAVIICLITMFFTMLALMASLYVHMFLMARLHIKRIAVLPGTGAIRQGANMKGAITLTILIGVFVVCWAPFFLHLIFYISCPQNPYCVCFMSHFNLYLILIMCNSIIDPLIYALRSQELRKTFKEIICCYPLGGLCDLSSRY
Chain of melanocortin-1 receptor (MC1-R), endogenous in B-16 mouse melanoma cells (mouse) (Q01727 whole entry): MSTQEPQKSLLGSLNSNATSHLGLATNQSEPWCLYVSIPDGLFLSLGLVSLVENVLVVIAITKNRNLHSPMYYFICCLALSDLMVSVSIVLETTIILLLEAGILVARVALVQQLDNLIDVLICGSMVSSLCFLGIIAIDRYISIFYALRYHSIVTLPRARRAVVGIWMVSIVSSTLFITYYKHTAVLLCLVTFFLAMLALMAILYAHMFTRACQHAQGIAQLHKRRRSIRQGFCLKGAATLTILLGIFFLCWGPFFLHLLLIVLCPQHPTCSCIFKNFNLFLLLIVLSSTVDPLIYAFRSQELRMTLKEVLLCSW
Chain of human recombinant melanocortin-5 receptor (hMC5-R) (human) (P33032 whole entry): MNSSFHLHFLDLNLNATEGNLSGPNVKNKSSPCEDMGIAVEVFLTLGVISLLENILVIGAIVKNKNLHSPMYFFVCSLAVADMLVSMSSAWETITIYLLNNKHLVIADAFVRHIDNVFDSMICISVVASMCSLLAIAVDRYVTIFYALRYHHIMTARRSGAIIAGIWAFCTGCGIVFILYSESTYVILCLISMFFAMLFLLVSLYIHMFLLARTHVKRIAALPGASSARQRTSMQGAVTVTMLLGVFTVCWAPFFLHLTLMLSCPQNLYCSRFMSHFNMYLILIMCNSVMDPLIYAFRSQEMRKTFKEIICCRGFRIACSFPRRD

Binder	EC50 (cAMP accumulation in HEK-293 cells expressing hMC4-R) [1] [nM]	intrinsic activity (cAMP, NDP-α-MSH is 100%) [1] [%]	Ki [2] [nM]	Ki [3] [nM]	Ki [4] [nM]	Ki [5] [nM]
Ac-RE[Dab][dF]RW[Orn]-NH2 (lactam 2-7; also: TFA salt) [cyclic peptide of Example 8.3, Ac-Arg-cyclo(Glu-Dab-D-Phe-Arg-Trp-Orn)-NH2]	0.3	94	300	0.65	1	74
Ac-RE[Dab][dF]RW[Orn]-OH (lactam 2-7; also: acetate and TFA salts) [cyclic peptide of Example 8.4, Ac-Arg-cyclo(Glu-Dab-D-Phe-Arg-Trp-Orn)-OH]	–	91	2370	8	4	410
